In paper PMC9348634, “Insight into the mechanism of DNA synthesis by human terminal deoxynucleotidyltransferase”:

Assays:
Settings in all cases: label: 5'-FAM; single strand
[1] = target: T1, terminal deoxynucleotidyltransferase (TdT) (human, UniProt P04053 1-509); test: MST; Co2+; Kd treated by authors as estimate; MST with 5.0 mM Mg2+ (Mn2+ or Co2+ in other runs, concentration not given); buffer, salt, pH and temperature not in the material
[2] = target: T1, terminal deoxynucleotidyltransferase …; test: MST; 5.0 mM Mg2+; MST with 5.0 mM Mg2+ (Mn2+ or Co2+ in other runs, concentration not given); buffer, salt, pH and temperature not in the material
[3] = target: T1, terminal deoxynucleotidyltransferase …; test: MST; Mn2+; Kd treated by authors as estimate; MST with 5.0 mM Mg2+ (Mn2+ or Co2+ in other runs, concentration not given); buffer, salt, pH and temperature not in the material

T1 sequence (P04053 whole entry): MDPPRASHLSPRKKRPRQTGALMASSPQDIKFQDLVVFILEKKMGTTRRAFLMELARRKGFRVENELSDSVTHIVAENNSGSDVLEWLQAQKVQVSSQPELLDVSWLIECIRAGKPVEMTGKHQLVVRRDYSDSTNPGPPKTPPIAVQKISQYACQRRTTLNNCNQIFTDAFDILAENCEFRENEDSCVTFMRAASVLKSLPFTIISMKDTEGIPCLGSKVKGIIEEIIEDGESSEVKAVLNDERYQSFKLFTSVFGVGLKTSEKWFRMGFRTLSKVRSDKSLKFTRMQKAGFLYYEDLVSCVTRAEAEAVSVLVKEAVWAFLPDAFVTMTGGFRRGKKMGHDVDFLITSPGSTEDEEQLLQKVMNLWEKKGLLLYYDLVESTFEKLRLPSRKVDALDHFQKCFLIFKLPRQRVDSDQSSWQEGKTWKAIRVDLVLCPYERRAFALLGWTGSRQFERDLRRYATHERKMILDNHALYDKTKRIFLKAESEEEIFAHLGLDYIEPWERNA

B1: DNA primer FAM-GGAAGA (ssDNA)
DNA: GGAAGA
Kd [1]: 700 ± 100 nM | Kd [2]: 4600 ± 100 nM | Kd [3]: 800 ± 200 nM
